The record followed here is publication PMC6891578, “An extracellular domain of the EsaA membrane component of the type VIIb secretion system: expression, purification and crystallization” (Acta Crystallographica. Section F, Structural Biology …, 2019).

This series deals with the molecule itself. In words: SEC-MALS; Superdex 200 10/300 GL, 150 mM NaCl, 20 mM Tris–HCl pH 8.0, 3 mM DTT; 100 µl of EsaAex_2 at 4 mg/ml loaded, 0.5 ml/min. In general terms: In gel filtration, larger molecules generally elute earlier.

B1: EsaAex_2 (extracellular domain of EsaA, amino acids 275–689) (domain or fragment)
chain: MSQKDSVELDNYINALKQMDSQIDQQSSMQDTGKEEYKQTVKENLDKLREIIQSQESPFSKGMIEDYRKQLTESLQDELANNKDLQDALNSIKMNNAQFAENLEKQLHDDIVKEPDTDTTFIYNMSKQDFIAAGLNEGEANKYEAIVKEAKRYKNEYNLKKPLAEHINLTDYDNQVAQDTSSLINDGVKVQRTETIKSNDINQLTVATDPHFNFEGDIKINGKKYDIKDQSVQLDTSNKEYKVEVNGVAKLKKDAEKDFLKDKTMHLQLLFGQANRQDEPNDKKATSVVDVTLNHNLDGRLSKDALSQQLSALSRFDAHYKMYTDTKGREDKPFDNKRLIDMMVDQVINDMESFKDDKVAVLHQIDSMEENSDKLIDDILNNKKNTTKNKEDISKLIDQLENVKKTFAEEPQEPK
notes: EsaA, membrane component of the type VIIb secretion system, S. aureus USA300, amino acids 275–689 of the 1009-residue protein; The His tag was cleaved with TEV protease; also called purified extracellular domain; source: E. coli BL21 Star, purified (HisTrap, TEV cleavage, Ni-NTA flowthrough, SEC); not shown: His6, N-terminal, cleaved
Broadly, the stoichiometry N is a count of units in the complex or per binding partner. Turning to B1, the “stoichiometry N” value was found to be 2.
